Like-named read-outs stand apart in the source and are kept apart here. One block for each molecule: values may come before it.
Experiments:
[1] = molecular target: PDGF-C growth factor domain (human); assay: immunoblot after cleavage with matriptase
[2] = molecular target: the molecule itself; assay: non-reducing SDS-PAGE and immunoblot
[3] = molecular target: the molecule itself; assay: non-reducing SDS-PAGE and immunoblot; remark: listed apart in the source

- stoichiometry N [1]: 2
Molecule: PDGF-C growth factor domain (domain or fragment)

B1: truncated PDGF-C isoform with a C-terminal myc tag (t-PDGF-C-myc), in COS-1 cells (natural protein, human, UniProt Q9NRA1 164-345, looked up)
chain: MPQFTEAVSPSVLPPSALPLDLLNNAITAFSTLEDLIRYLEPERWQLDLEDLYRPTWQLLGKAFVFGRKSRVVDLNLLTEEVRLYSCTPRNFSVSIREELKRTDTIFWPGCLLVKRCGGNCACCLHNCNECQCVPSKVTKKYHEVLQLRPKTGVRGLHKSLTDVALEHHEECDCVCRGSTGG
- stoichiometry N [2]: 2

B2: truncated PDGF-C isoform with a myc tag (t-PDGF-C/myc), stably expressed in BT-549 cells (natural protein, human, UniProt Q9NRA1 164-345, looked up)
chain: MPQFTEAVSPSVLPPSALPLDLLNNAITAFSTLEDLIRYLEPERWQLDLEDLYRPTWQLLGKAFVFGRKSRVVDLNLLTEEVRLYSCTPRNFSVSIREELKRTDTIFWPGCLLVKRCGGNCACCLHNCNECQCVPSKVTKKYHEVLQLRPKTGVRGLHKSLTDVALEHHEECDCVCRGSTGG
- stoichiometry N [3]: 2

From publication PMC6872946 (Growth factors (Chur, Switzerland), 2019)
